Measurements reported in US20220332804A1 (CSL INNOVATION, published 2022).

Legend:
Experiment in all cases: SPR, antibody captured, C2 as analyte;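 also: biacore SPR at 37 °C, anti-C2 mAbs captured via goat anti-human IgG on CM5 chips, double-referenced sensorgrams fit to a 1:1 kinetic or steady-state model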
human C2 H331A = target: T1, human C2 H331A (human, UniProt P06681 21-752)
T1 sequence: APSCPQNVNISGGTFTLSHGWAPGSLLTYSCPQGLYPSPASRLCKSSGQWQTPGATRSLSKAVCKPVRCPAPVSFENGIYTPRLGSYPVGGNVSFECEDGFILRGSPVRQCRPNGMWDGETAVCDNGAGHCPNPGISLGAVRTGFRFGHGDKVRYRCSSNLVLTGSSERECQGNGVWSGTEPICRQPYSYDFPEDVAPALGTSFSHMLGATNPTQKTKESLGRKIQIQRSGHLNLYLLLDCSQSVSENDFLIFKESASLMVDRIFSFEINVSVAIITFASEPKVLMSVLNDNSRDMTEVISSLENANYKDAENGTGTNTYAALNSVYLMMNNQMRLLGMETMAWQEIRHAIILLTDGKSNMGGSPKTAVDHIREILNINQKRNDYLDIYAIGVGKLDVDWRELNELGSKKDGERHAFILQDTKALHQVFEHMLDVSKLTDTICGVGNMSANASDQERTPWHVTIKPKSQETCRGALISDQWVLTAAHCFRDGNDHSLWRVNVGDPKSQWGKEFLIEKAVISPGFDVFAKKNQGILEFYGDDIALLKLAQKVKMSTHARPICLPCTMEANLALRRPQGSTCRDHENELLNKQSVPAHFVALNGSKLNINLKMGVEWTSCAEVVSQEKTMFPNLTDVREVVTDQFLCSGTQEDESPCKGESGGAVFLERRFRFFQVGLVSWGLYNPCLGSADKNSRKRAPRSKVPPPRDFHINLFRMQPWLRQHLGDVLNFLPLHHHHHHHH

human C2 K244A = target: T2, human C2 K244A (human, UniProt P06681 21-752)
T2 sequence: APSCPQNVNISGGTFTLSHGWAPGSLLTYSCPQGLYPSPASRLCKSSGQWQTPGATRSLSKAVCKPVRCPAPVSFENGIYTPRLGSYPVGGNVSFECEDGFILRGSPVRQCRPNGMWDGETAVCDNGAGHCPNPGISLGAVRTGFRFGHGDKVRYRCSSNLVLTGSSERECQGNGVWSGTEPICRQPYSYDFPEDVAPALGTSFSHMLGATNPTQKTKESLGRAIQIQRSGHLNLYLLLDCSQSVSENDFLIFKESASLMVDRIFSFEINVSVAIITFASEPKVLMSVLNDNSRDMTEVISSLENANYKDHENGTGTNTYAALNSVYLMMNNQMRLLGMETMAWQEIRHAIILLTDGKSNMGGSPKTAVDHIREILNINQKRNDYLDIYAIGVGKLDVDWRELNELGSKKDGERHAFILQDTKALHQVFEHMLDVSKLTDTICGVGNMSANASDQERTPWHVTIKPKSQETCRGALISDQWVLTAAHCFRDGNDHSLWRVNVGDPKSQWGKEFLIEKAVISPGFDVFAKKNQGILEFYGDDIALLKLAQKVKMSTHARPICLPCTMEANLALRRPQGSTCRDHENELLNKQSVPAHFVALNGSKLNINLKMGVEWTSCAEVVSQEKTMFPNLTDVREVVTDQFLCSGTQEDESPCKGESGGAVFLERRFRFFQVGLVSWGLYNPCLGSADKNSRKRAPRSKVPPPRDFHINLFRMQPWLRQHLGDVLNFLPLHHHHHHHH

human C2 R434A = target: T3, human C2 R434A (human, UniProt P06681 21-752)
T3 sequence: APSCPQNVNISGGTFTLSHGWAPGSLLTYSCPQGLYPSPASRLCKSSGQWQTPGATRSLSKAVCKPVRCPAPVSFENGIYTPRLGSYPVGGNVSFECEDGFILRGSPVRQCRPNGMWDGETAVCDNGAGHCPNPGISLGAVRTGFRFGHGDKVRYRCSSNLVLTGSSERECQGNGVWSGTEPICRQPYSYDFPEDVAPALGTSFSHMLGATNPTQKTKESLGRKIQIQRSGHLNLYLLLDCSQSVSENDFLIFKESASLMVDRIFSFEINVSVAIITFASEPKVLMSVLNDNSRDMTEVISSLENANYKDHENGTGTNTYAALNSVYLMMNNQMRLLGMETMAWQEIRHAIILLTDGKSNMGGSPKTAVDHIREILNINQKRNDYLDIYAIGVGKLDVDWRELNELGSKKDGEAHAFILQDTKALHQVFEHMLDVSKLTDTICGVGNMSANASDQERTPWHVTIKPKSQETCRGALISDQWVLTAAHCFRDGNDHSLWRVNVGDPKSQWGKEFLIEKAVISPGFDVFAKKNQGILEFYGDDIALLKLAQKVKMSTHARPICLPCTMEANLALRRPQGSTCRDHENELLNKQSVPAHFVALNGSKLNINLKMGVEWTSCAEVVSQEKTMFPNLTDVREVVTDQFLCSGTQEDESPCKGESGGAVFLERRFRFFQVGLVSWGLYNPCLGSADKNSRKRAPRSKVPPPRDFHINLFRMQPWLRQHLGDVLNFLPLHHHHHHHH

human C2 K485A = target: T4, human C2 K485A (human, UniProt P06681 21-752)
T4 sequence: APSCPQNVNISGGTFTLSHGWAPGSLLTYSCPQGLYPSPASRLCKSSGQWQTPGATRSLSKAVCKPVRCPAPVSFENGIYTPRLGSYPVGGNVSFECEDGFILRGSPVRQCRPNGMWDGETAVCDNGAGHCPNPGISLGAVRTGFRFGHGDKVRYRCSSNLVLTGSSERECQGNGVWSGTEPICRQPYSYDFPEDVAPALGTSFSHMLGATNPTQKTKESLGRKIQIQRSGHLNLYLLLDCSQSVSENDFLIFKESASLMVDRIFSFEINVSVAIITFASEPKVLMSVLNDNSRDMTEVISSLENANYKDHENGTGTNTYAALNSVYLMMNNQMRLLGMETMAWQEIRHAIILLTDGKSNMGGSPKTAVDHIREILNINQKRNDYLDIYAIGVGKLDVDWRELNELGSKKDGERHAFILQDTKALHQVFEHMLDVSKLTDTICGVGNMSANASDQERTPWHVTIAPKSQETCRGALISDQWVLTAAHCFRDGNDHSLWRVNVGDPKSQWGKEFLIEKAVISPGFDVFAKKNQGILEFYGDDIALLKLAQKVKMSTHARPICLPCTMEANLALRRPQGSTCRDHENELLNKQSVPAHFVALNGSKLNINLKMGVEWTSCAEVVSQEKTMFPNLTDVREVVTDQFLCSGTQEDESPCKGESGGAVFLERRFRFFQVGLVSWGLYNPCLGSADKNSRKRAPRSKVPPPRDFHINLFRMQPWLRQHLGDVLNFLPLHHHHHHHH

B1: RF16-226 (antibody, human IgG4 S228P, lambda)
heavy: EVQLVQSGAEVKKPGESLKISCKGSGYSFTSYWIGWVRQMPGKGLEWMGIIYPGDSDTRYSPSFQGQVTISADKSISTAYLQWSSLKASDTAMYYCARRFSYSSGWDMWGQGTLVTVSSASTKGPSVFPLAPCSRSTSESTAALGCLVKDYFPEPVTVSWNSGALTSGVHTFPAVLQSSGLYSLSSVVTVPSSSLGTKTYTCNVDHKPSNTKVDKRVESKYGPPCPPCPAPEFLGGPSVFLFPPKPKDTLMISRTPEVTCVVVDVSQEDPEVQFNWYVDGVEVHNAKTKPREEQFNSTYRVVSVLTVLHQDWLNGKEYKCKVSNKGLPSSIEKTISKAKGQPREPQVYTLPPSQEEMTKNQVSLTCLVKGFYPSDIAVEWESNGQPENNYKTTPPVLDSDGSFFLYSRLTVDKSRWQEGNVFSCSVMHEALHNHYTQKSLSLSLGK
light: SYELTQPPSVSVSPGQTARITCSGDALTSKYVAWYQQKSGLAPLLVIYEDTRRPSGIPAKFSGSSSGSVATLTISGAHGDDEADYYCYSTDASGHQRVFGGGTKLTVLSQPKAAPSVTLFPPSSEELQANKATLVCLISDFYPGAVTVAWKADGSPVKAGVETTKPSKQSNNKYAASSYLSLTPEQWKSHRSYSCQVTHEGSTVEKTVAPTECS
notes: pH-dependent anti-C2 antibody from a phage display library; also called WT
With B1 the binding result (human C2 H331A) was “no binding”, the Kd (human C2 K244A) was 22.7 nM and the Kd (human C2 R434A) was 142 nM. The Kd (human C2 K485A) was 12.5 nM.
